# Results: patent US20250051400A1
# Columns and labels:
# human IgG2 (Panitumomab) = assay: SPR, Biacore 3000, 25 C, Langmuir 1:1 model
# human IgG4 (Natalizumab) = assay: SPR, Biacore 3000, 25 C, Langmuir 1:1 model
substance,measurement,setting,value
Wt C-domain (wild-type Protein A domain C) (from UniProt P38507 270-327),Kd,human IgG2 (Panitumomab),129 nM
same,Kd,human IgG4 (Natalizumab),8 nM
